Data taken from US20110086026A1 (ROCHE PALO ALTO, published 2011).

Assays:
[1] = target: T1, extracellular domain of hIL-13Rα1 cleaved from hIL-13Rα1:hFc chimeric protein (human, UniProt P78552 22-343); test: SPR Biacore 3000, CM5 chip, HuMab captured by anti-hFcγ, cleaved hIL-13Rα1 as analyte, bivalent analyte model
T1 construct: extracellular domain; also called Cleaved hIL-13Rα1 molecules (MW 40 kDa)
T1 sequence (looked up): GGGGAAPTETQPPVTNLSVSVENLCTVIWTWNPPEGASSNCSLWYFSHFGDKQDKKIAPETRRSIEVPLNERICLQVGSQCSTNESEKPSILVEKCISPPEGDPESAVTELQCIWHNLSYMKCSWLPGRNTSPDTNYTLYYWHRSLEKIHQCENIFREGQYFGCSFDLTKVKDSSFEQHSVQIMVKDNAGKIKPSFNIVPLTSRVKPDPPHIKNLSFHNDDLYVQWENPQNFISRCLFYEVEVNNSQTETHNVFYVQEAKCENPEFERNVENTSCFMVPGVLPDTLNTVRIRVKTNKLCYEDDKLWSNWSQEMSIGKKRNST
Description: (§1) In these experiments, the affinity of the original IgG1 derived from hybridoma was compared with the affinities of the recombinant variant IgG1-Ala-Ala. For interaction analysis, a Biacore 3000 instrument was used. Running and reaction buffer was HBS-P (10 mM HEPES, 150 mM NaCl, 0.005% polysurfactant P, pH 7.4) at 25° C. Capturing antibody molecules (anti-hFcγ) were amine-coupled at a concentration of 20 μg/ml at a flow rate of 5 μl/min for 20 minutes. HuMabs were injected at concentrations of 10 μg/ml at a flow rate of 10 μl/min for 1 minute. Cleaved hIL-13 Rα1 molelcules (analyte) were injected for five minutes at eight concentrations between 1.56 nM and 200 nM and washed with HBS-P for five minutes. Regeneration of the surface was accomplished by two injections of 100 mM HCl for 1 min each. The chip, assay format and sequence of injections and kinetic data correspond to the description in Table 4. Kinetic data were calculated by fitting kinetic data to a bivalent analyte binding model.

[2] = target: T1, extracellular domain of hIL-13Rα1 …; test: SPR Biacore 3000, CM5 chip, HuMab captured by anti-hFcγ, cleaved hIL-13Rα1 as analyte, bivalent analyte model (ka1)
Description: as §1

[3] = target: T1, extracellular domain of hIL-13Rα1 …; test: SPR Biacore 3000, CM5 chip, HuMab captured by anti-hFcγ, cleaved hIL-13Rα1 as analyte, bivalent analyte model (kd1)
Description: as §1

B1: HuMab LC5002-005 (antibody, V domains shown)
VH: EVQVLDSGGGLVQPGGSLRLSCTASGFTFRLYTMSWVRQTPGRGLEWVSGISGSGLSTYFADSVKGRFTISRDNSKNTVYLQMNSLRAEDTAVYYCAKEGDWIYFDSWGQGTLVIVSS
VL: DIQMTQSPSSLSASVGDRVTITCRASQGISSWLAWYQQKPEKAPKSLIYAASSLQSGVPSRFSGSGSGTDFTLTISSLQPEDFATYYCQQYNSHPPTFGQGTKLEIK
notes: Only the variable domains are tied to this antibody; also called hu-MAB<h-IL-13Ralpha>LC.5002-005 (DSM ACC2711)
- Kd [1]: 2.7 nM
- kon [2]: 133000 M⁻¹ s⁻¹
- koff [3]: 0.00036 s⁻¹
